The source of these data is patent publication US10323078B2, “Isolated peptides and fragments thereof from fibrinogen for use as drugs, particularly in skin inflammatory diseases” (Universite Paris Descartes, priority 2015, dated 2019).

One experiment deals with ThP1 cells. In words: IL-1β production by P. acnes-stimulated ThP1 (ELISA). Format: cell-based, human. To be noted: for Inhibition of Interleukine 1 beta (IL-1β) production: ThP1, 0.87 to 7 μM. As to the method:
(§1) For experiences of stimulation with P. acnes, cells were incubated with the P. acnes suspension adjusted at the appropriate concentration, pre-treated for 1 h at 37° C. or not with fibrinogen recombinant peptides Fg1 and Fg2 at the concentrations 0.87, 1.75, 3.5 or 7 μM for the desired period of time at 37° C. in 5% CO2.
Human IL-1ß, IL-8, IL-12, hBD-2, and TNF-α protein concentration was measured in the supernatants of stimulated cells using various ELISA Set kits (Ready-Set-Go kit from eBioscience for acne experiments, and for psoriasis experiments the Duo set IL-8 kit from R&D Systems and the BD-2 Human Development (hBD-2) from Peprotech) according to the manufacturer's instructions. We used serial dilutions of recombinant human IL-1ß, IL-8, IL-12 and TNF-α for standard curve. The optical density was determined at 450 nm at a wavelength correction of 540 nm.
To assess the efficacy of Fg1 recombinant peptide, the production of O2^∘− and H2O2 by HaCaT cells NHDK, THP-1, MRC5 and HDF stimulated by pretreated P. acnes strains 6919, RON and PIE was measured. The amount of ROS produced was compared to that produced by the stimulated cells with untreated bacteria. Production baseline was obtained by measuring ROS on unstimulated cells. The production of IL-1ß, IL-8, IL-12 and TNF-α was also measured in all conditions cited above. The measurement of the production of ROS is performed by spectrofluorimetry in the presence of specific fluorochromes directly on the monolayer cell. Measurement of cytokine production was performed in parallel on the cell culture supernatant.
Two sets of experiments were implemented: 1) The cells were stimulated (18 h at 37° C.) by P. acnes strains previously pretreated with Fg1 and Fg2 peptides at the final concentrations ranging from 0.87 to 7 μM for 1 h at 37° C.; and 2) The cells were pretreated first with Fg1 and Fg2 peptides at the final concentrations ranging from 0.87 to 7 μM for 24 h at 37° C. and stimulated (18 h at 37° C.) by P. acnes strains.
A general note: An ELISA detects its analyte on a solid surface through an enzyme-linked reagent.

In the next experiment the test system is HaCaT cells. In words: O2°− production by P. acnes-stimulated HaCaT (spectrofluorimetry, DHE). In kind it is cell-based, human. The note with it: bacteria first pretreated, 0.87 to 7 μM. How it is done:
FIG. 14: Dose-dependent inhibition of O2^∘− production by keratinocytes stimulated by P. acnes pre-treated by recombinant peptide. HaCaT cell were incubated for 18 h with P. acnes PIE strain at a concentration adjusted to 0.2 of absorbance at 600 nm (blue bar) and with P. acnes pretreated with recombinant peptide Fg1 (light gray bar) and Fg2 (dark gray bar). Measurement of superoxide anion production was realized by spectrofluorometry as described in Materials and Methods. Control experiment was done on unstimulated HaCaT cell (red bar). Data are means±S.D. of three separate experiments. Statistical significance is indicated by * (P<0.05), ** (P<0.01), *** (P<0.001), and **** (P<0.0001), respectively.
as §1
All cells lines (5·10^4 to 10^5 cells/well) were seeded in 96-well plates (Corning Costar, Brumath, France) and treated as previously described. After stimulation, cells were washed three times in PBS and incubated with 100 μl per wells of 5 μM DHE (for determination of O2^●−) or 5 μM H2-DCFDA (for determination of H2O2) for 30 min as described previously and fluorescence intensity was recorded every hour over a period of 5 h. Fluorescence excitation/emission maxima were for DHE: 480/610 nm and for H2-DCFDA: 507/525 nm. At the end of the experiment, the number of adherent cells was evaluated by the crystal violet assay as described below. […] Levels of ROS were calculated in each sample as follows: reactive oxygen species rate (arbitrary units/min/10^6 cells)=(fluorescence intensity [arbitrary units] at T5h—fluorescence intensity [arbitrary units] at To/300 minutes/number of adherent cells as measured by the crystal violet assay, and were expressed as arbitrary unit (A.U.). […]

The subject of a further experiment is P. acnes RON strain. In words: Adhesion assay, biotinylated P. acnes binding to monocytes (ThP1). The note with it: monocytes (THP-1); bacteria pretreated 0.87 to 7 μM, 1 h at 37° C. In kind it is cell-based, Propionibacterium acnes. How it is done:
FIG. 13: Dose-dependent inhibition of P. acnes RON binding to monocytes cell line. Biotinylated P. acnes RON strain at concentrations adjusted to 0.1 of absorbance at 600 nm was pre-treated with the recombinant peptides Fg1 and Fg2 and incubated 1 h at 37° C. with the human immortalized monocytes cell line ThP1. After removal of unbound bacteria, adhesion activity was detected at 410 nm. Data are means±S.D. of three separate experiments. Statistical significance is indicated by * (P<0.05), ** (P<0.01), *** (P<0.001), and **** (P<0.0001), respectively.
The bacterial suspension was adjusted at 600 nm to the desired concentration, pretreated with peptides Fg1 and Fg2 at the final concentration ranging from 0.87 to 7 μM for 1 h at 37° C. and deposited on the previously saturated cells with a solution of PBS SVF 2% for 2 h. After incubation for 1 h at 37° C., unbound bacteria are removed by 3 washes with PBS and fixed bacteria are detected by a streptavidin-peroxidase solution of 0.5 μg/ml for 30 min.
Whole P. acnes bacteria are labelled by biotinylation, pre-treated or not with the peptides and contacted with the various cell lines. After removal of the unfixed bacteria, the adhesion activity was measured spectrophotometrically by using the streptavidin-peroxidase conjugate and a chromogenic substrate. […]

B1: MKRMVSWSFHKLKTMKHLLLLLLCVFLVKSQGVNDNEEGFFSARGHRPLDKKREEAPSLRPAPPPISGGGYRARPAKAAATQKKVERKAPDAGGCLHADPDLGVLC (protein)
chain: MKRMVSWSFHKLKTMKHLLLLLLCVFLVKSQGVNDNEEGFFSARGHRPLDKKREEAPSLRPAPPPISGGGRARPAKAAATQKKVERKAPDAGGCLHADPDLGVLCMKRMVSWSFHKLKTMKHLLLLLLCVFLVKSQGVNDNEEGFFSARGHRPLDKKREEAPSLRPAPPPISGGGYRARPAKAAATQKKVERKAPDAGGCLHADPDLGVLC
modifications: GST fusion; fragment Fg1
notes: fragment of Bß chain of human fibrinogen having 106 amino acids; recombinant GST-fused peptide expressed in E. coli
For the molecule B1, the “Inhibition of Interleukine 1 beta (IL-1β) production” value in the experiment on ThP1 cells (P. acnes 6919, set I, bacteria first pretreated) is “NO (Inhibition NO: Fg1 has no effect on the production of inflammatory molecule)”; in the experiment on ThP1 cells (P. acnes 6919, set II, cells first pretreated) it was “NO (Inhibition NO: Fg1 has no effect on the production of inflammatory molecule)”; in the experiment on ThP1 cells (P. acnes PIE, set I, bacteria first pretreated) it was “NO (Inhibition NO: Fg1 has no effect on the production of inflammatory molecule)”; in the experiment with ThP1 cells (P. acnes PIE, set II, cells first pretreated) it was “NO (Inhibition NO: Fg1 has no effect on the production of inflammatory molecule)”; in the experiment on ThP1 cells (P. acnes RON, set I, bacteria first pretreated), “NO (Inhibition NO: Fg1 has no effect on the production of inflammatory molecule)”; in the experiment on ThP1 cells (P. acnes RON, set II, cells first pretreated), “NO (Inhibition NO: Fg1 has no effect on the production of inflammatory molecule)”. In addition, the “Effect on the production of IL-1ß” value in the experiment with ThP1 cells (whatever the strain of P. acnes used, production effective only for monocytes) was “no effect”. Also, the “Inhibition of Superoxide anion (O2°−) production” value in the experiment with HaCaT cells (P. acnes 6919, set I) is given as “pos”; with HaCaT cells (P. acnes PIE, set I), “pos”; in the experiment on HaCaT cells (P. acnes RON, set I), “pos”. Moreover, in the experiment with P. acnes RON strain, the “Inhibition of adhesion of P. acnes RON strain” value is “inhibits the adhesion of RON strain in a dose-dependent manner”.
